Results reported in patent US20020177180A1, “pH-indicator based assay for selective enzymes” (ThermoGen, Inc., priority 1998, published 2002).

What was measured:
Format in all cases: biochemical
[1] = pH-indicator (4-nitrophenol/BES) microplate screening of commercial hydrolases, initial rates of hydrolysis; details: for Activity (R): (R)-solketal butyrate 1.0 mM; for Activity (R) / Activity (S) / Activity (±): pH 7.2, 7.1% acetonitrile, 25° C.; for Activity (S): (S)-solketal butyrate 1.0 mM; for Activity (±): (±)-solketal butyrate 1.0 mM, specific activity; for Estimated E: without Triton X-100
Procedure: The hydrolases were dissolved in BES buffer (5.0 mM, pH 7.2) at the concentrations listed in Table 1 (0.5-40 mg solid/mL solution). […] CaCl2 (2 mM) was added to the protease solutions since some proteases require calcium ions to maintain their structure. For hydrolase samples with low protein content, saturated solutions (up to 40 mg solid/ml) were utilized for hydrolase samples and with high protein content were utlized, lower concentrations (typically, 1 mg solid/ml) were utilized. Each solution was centrifuged to remove insoluble material (5 min, 2,000 rpm) and titrated to a final pH of 7.2. The protein concentrations were determined using a dye-binding assay from Bio-Rad (Mississauga, ON) with bovine serum albumin (BSA) as the standard. Solutions were stored in a 96-well assay block ‘mother plate’ equipped with aluminum sealing tape (2 mL maximum volume in each well, Corning Costar, Acton, Mass.) at −20° C.
Hydrolase solutions (5 μL/well) were transferred from the mother plate to a 96-well microtiter plate using an 8-channel pipette. Assay solution (100 μL/well) was quickly added to each well using a 1,200 μL 8-channel pipette. The final concentrations in each well were 1.0 mM substrate, 4.65 mM BES, 0.434 mM 4-nitrophenol, 7.1% acetonitrile. The plate was quickly placed in the microplate reader, shaken for 10 s to ensure complete mixing and the decrease in absorbance at 404 nm was monitored at 25° C. as often as permitted by the microplate software, typically every 11 seconds. […] Data were collected for one hour to ensure slow reactions and reactions with a lag time were detected. Each hydrolysis was carried out in quadruplicate and was averaged. […] For this reason. the first 10 s of data was typically deleted from the calculation of the initial rate. Activities were calculated from slopes in the linear portion of the curve usually over the first two hundred seconds. […] To calculate specific activity (μmol/min/mg protein), the total amount of protein in each well was taken into account.
The assay was used to screen for enantioselective hydrolases in 96-well microplates. Using pure enantiomers, the initial rates of hydrolysis of each enantiomer of solketal butyrate was measured separately. […] Note that the ratio of separately measured initial rates of hydrolysis of the enantiomers is not the true enantioselectivity, so this screening provides only an estimated enantioselectivity. The true enantioselectivity is the ratio of the specificity constants (kcat/KM) for each enantiomer. By measuring initial rates of the enantiomers separately, competitive binding between the two enantiomers was eliminated. At saturating substrate conditions, the relative initial rates equal the relative kcat values; at partially saturating conditions, the initial rates also depend on the KM values. Thus, the ratio of separately measured initial rates ignores some or all of the effect of KM on enantioselectivity. In spite of this inaccuracy, the relative initial rate provides an estimated enantioselectivity.

[2] = pH-indicator screening under interfacial activation conditions (Triton X-100); details: 2.8 mM Triton X-100 in the wells
Procedure: The procedure was the same as above except that the BES buffer (5 mM, pH 7.2) contained Triton-X 100 (8.45 mM). Final concentration of Triton X-100 in the wells was 2.8 mM.
The reaction conditions in the assay were altered in an attempt to increase the estimated enantioselectivity toward solketal butyrate. For example, the activity of hydrolases, especially lipases, often increases in the presence of an interface. It was reasoned that this interfacial activation may also change the enantioselectivity. The hydrolase library was screened with Triton X-100 (a non-ionic detergent) added to create micelles. The reaction rates increased for eight hydrolases (three lipases and five esterases), decreased for thirty-two hydrolases, and stayed constant for twelve hydrolases. Unfortunately, the estimated enantioselectivities remained unchanged or decreased slightly for the best hydrolases: AOP (decrease from 4.9 to 4.2), ROL (decrease from 11.3 to 9.6), HLE (decrease from 12.2 to 7.6), BSP (decrease from 7.3 to 5.4). […] For example, subtilisin Carlsberg increased from 2.6 to 2.8, esterase from Bacillus stearothermophilus increased from 1.7 to 2.4 and Aspergillus oryzae lipase decreased from 4.95 to 1.8.

[3] = Quick E of chromogenic ester with resorufin tetradecanoate reference; details: substrate 1
Procedure: To reintroduce competition, resorufin tetradecanoate was added as a reference compound, FIG. 7. The initial rates of hydrolysis of (S)-1 were monitored at 404 nm and the reference compound at 572 nm in the same solution. After taking into account the initial concentrations of both substrates, the ratio of these rates yielded the selectivity of the hydrolase for (S)-1 over the reference compound, Eq 8.
A second experiment using (R)-1 and the reference compound yielded the selectivity of (R)-1 over the reference compound. The ratio of these two selectivities yields the enantiomeric ratio, Eq. 9.
Substrate solutions were the same as for separately measured initial rate measurements, but a solution of resorufin tetradecanaote 6 (0.5 mL of a 1.59 mM solution in acetonitrile) was added slowly to the vortexing solutions of pure enantiomers. It was necessary to use a 2-fold increase in the concentration of Triton X-100 to solubilize resorufin tetradecanoate. The emulsions remained clear for at least 2 hours. To measure the initial rates of hydrolysis, lipase solutions from Table 4 (100 μL) was added to the substrate emulsion (900 μL) in a cuvette at 25° C. and the linear increase in absorbances at 404 nm and 574 nm were monitored for 15 s. Rates are calculated in μmol/min/mg protein after taking into account the amount of protein in each cuvette. […] No spontaneous chemical hydrolysis was detected at 404 nm or 574 nm.

[4] = Separately measured initial rates of chromogenic esters (404 nm), estimated E; details: substrate 1
Procedure: The initial rates of hydrolysis of 4-nitrophenyl esters of pure enantiomers were determined to quickly estimate the enantioselectivity of several lipases towards three common chiral carboxylic acids: 2-phenylpropanoic acid, p-nitro phenyl ester (or, 4-nitrophenyl 2-phenylpropanoate), 1; 2-(4-isobutylphenyl)propanoic acid (commercially available as Ibuprofen), 2; and phenylalanine, 3, FIG. 5. The rates of hydrolysis of 4-nitrophenyl esters were conveniently determined spectrophotometrically by monitoring the rate of release of 4-nitrophenoxide anion at 404 nm, FIG. 6. The ratio of separately measured initial rates of hydrolysis estimated the enantioselectivity. The quick E of phenylalanine, 3, was not measured because of its instability in aqueous solution.
Separately measured initial rates of chromogenic esters. 4-nitrophenyl esters of 2- phenylpropanoic acid, 1, and 2-(4-isobutylphenyl)propanoic acid, 2, were emulsified in aqueous solutions according to Vorderwuibecke. A solution of (R) or (S)-4-nitrophenyl-esster (500 μL of a 7.8 mM solution in acteonitrile) was added dropwise to Tris buffer (9000 μL, 50 mM, pH 7.5) containing 0.45 w/v % Triton X-100 (Pierce Surfact-Amps) and vortexed until clear. This emulsion remained clear for at least 3 hours. To measure the initial rates of hydrolysis, lipase solutions from Table 3 (100 μL) were added to the substrate emulsion (900 μL) in a cuvette at 25° C. and the linear increase in absorbance at 404 nm was monitored for 15 s. The final concentrations in the cuvettes were 0.369 mM substrate, 0.39% Triton X-100, 45 mM Tris buffer, 4.76% acetonitrile. No spontaneous chemical hydrolysis was detected. Solutions of 4-nitrophenyl esters of phenylalanine, 3, in acetonitrile (5 IL of a 50 mM solution in acetonitrile) were added to HEPES buffer (1000 μL, 10 mM , pH 7.5). To measure the rates of hydrolysis, 5 μL of ANL solution was added and the change in absorbance monitored as above.

[5] = Endpoint method: small-scale enzyme-catalyzed hydrolysis, ee by HPLC, true E; details: substrate 1
[6] = ratio of separately measured initial rates of the enantiomers
[7] = 0.37 mM substrate, 0.38% Triton X-100, 45.2 mM Tris Buffer, 4.76% acetonitrile

B1: Proteinase K: commercial protease (protein, UniProt P06873 106-384, looked up)
Proteinase K: AAQTNAPWGLARISSTSPGTSTYYYDESAGQGSCVYVIDTGIEASHPEFEGRAQMVKTYYYSSRDGNGHGTHCAGTVGSRTYGVAKKTQLFGVKVLDDNGSGQYSTIIAGMDFVASDKNNRNCPKGVVASLSLGGGYSSSVNSAAARLQSSGVMVAVAAGNNNADARNYSPASEPSVCTVGASDRYDRRSSFSNYGSVLDIFGPGTSILSTWIGGSTRSISGTSMATPHVAGLAAYLMTLGKTTAASACRYIADTANKGDLSNIPFGTVNLLAYNNYQA
- Activity (R) [1]: 3.08 μmol/min/mg protein
- Activity (S) [1]: 2.29 μmol/min/mg protein
- Activity (±) [1]: 2.14 μmol/min/mg protein
- Estimated E [1, 6]: 1.24

B2: Themsolysin, Type X: commercial protease (protein, UniProt P00800 233-548, looked up)
Thermolysin: ITGTSTVGVGRGVLGDQKNINTTYSTYYYLQDNTRGNGIFTYDAKYRTTLPGSLWADADNQFFASYDAPAVDAHYYAGVTYDYYKNVHNRLSYDGNNAAIRSSVHYSQGYNNAFWNGSQMVYGDGDGQTFIPLSGGIDVVAHELTHAVTDYTAGLIYQNESGAINEAISDIFGTLVEFYANKNPDWEIGEDVYTPGISGDSLRSMSDPAKYGDPDHYSKRYTGTQDNGGVHINSGIINKAAYLISQGGTHYGVSVVGIGRDKLGKIFYRALTQYLTPTSNFSQLRAAAVQSATDLYGSTSQEVASVKQAFDAVGVK
- Activity (R) [1]: 0.255 μmol/min/mg protein
- Activity (S) [1]: 0.738 μmol/min/mg protein
- Activity (±) [1]: 0.095 μmol/min/mg protein
- Estimated E [1, 6]: 2.89
- Estimated E [1]: 5

B3: Subtilisin Carlsberg: commercial protease (protein, UniProt P00780 106-379, looked up)
Subtilisin Carlsberg: AQTVPYGIPLIKADKVQAQGFKGANVKVAVLDTGIQASHPDLNVVGGASFVAGEAYNTDGNGHGTHVAGTVAALDNTTGVLGVAPSVSLYAVKVLNSSGSGSYSGIVSGIEWATTNGMDVINMSLGGASGSTAMKQAVDNAYAKGVVVVAAAGNSGSSGNTNTIGYPAKYDSVIAVGAVDSNSNRASFSSVGAELEVMAPGAGVYSTYPTNTYATLNGTSMASPHVAGAAALILSKHPNLSASQVRNRLSSTATYLGSSFYYGKGLINVEAAAQ
- Activity (R) [1]: 0.213 μmol/min/mg protein
- Activity (S) [1]: 0.082 μmol/min/mg protein
- Activity (±) [1]: 0.083 μmol/min/mg protein
- Estimated E [1, 6]: 2.60
- Estimated E ([1]; ratio of separately measured initial rates of the enantiomers, listed as subtilisin Carlsberg): 2.6
- estimated enantioselectivity with Triton X-100 [2]: 2.8

B4: Porcine pancreas: commercial lipase from porcine pancreas (protein, UniProt P00591 1-450, looked up)
Pancreatic triacylglycerol …: SEVCFPRLGCFSDDAPWAGIVQRPLKILPWSPKDVDTRFLLYTNQNQNNYQELVADPSTITNSNFRMDRKTRFIIHGFIDKGEEDWLSNICKNLFKVESVNCICVDWKGGSRTGYTQASQNIRIVGAEVAYFVEVLKSSLGYSPSNVHVIGHSLGSHAAGEAGRRTNGTIERITGLDPAEPCFQGTPELVRLDPSDAKFVDVIHTDAAPIIPNLGFGMSQTVGHLDFFPNGGKQMPGCQKNILSQIVDIDGIWEGTRDFVACNHLRSYKYYADSILNPDGFAGFPCDSYNVFTANKCFPCPSEGCPQMGHYADRFPGKTNGVSQVFYLNTGDASNFARWRYKVSVTLSGKKVTGHILVSLFGNEGNSRQYEIYKGTLQPDNTHSDEFDSDVEVGDLQKVKFIWYNNNVINPTLPRVGASKITVERNDGKVYDFCSQETVREEVLLTLNPC
- (R)-enantiomer + ref, rate 404 nm ([3]; 0.351 mM (R)-ester + 0.071 mM resorufin tetradecanoate, Tris pH 8, 25°): 0.000659 μmol/min/mg protein
- (S)-enantiomer + ref, rate 404 nm ([3]; 0.351 mM (S)-ester + 0.071 mM resorufin tetradecanoate, Tris pH 8, 25°): 0.00105 μmol/min/mg protein
- Quick E ([3]; error = standard deviation for 3 measurements): 1.4 ± 0.2
- (R)-enantiomer + ref, rate 574 nm ([3]; reference hydrolysis in presence of (R)-ester): 0.00437 μmol/min/mg protein
- (S)-enantiomer + ref, rate 574 nm ([3]; reference hydrolysis in presence of (S)-ester): 0.000495 μmol/min/mg protein
- Initial Rate (R) [4, 7]: 0.00403 μmol/min/mg protein
- Initial Rate (S) [4, 7]: 0.0059 μmol/min/mg protein
- Estimated E ([4]; ratio of separately measured initial rates): 1.4 ± 0.1
- C [5]: 4.0
- eep [5]: 2.0
- Endpoint E ([5]; Tris buffer pH 8.0, room temperature): 1.1 ± 0.1
